T1: Biotinylated Tir-10_v2 (Biotin-Ahx-EHI-pY-DEVAAD)
T1 chain: EHIYDEVAAD


Target: T1, Biotinylated Tir-10_v2 …
Assay: SPR; Biacore T100, 25 °C, Series S SA chip, about 15 RUs of biotinylated peptide captured; 10 mM HEPES pH 7.4, 150 mM NaCl, 3 mM EDTA, 0.05% P20, 0.1 mg/mL BSA; analytes 60 nM free SH2, 10 nM tcTRP24_(8)SS-SH2_(2), 10 nM tcTRP24_(8)SS; 50 μL/minute

Binder | maximum binding response [RUs]
free SH2 domain derived from the Nck adapter protein, P16333 282-376 (domain or fragment, modifications not checked) WYYGKVTRHQAEMALNERGHEGDFLIRDSESSPNDFSVSLKAQGKNKHFKVQLKETVYCIGQRKFSTMEELVEHYKKAPIFTSEQGEKLYLVKHL | 125
tcTRP24_(8)SS-SH2_(2) (trimeric tcTRP24 particle with two Nck SH2 domains in each subunit, six in all), P16333 282-376; P16333 282-376 (protein, modifications not checked) SELAARCLIILFQQLVELARLAIESGDEELLRRVSEWLEEVIKDMRRVVEQALREGNSELAARILIILFQQLVELARLAIESGDEELLRRVSEWLEEVIKDMRRVVEQALREGNWYYGKVTRHQAEMALNERGHEGDFLIRDSESSPNDFSVSLKAQGKNKHFKVQLKETVYCIGQRKFSTMEELVEHYKKAPIFTSEQGEKLYLVKHLSELAARILIILFQQLVELARLAIESGDEELLRRVSEWLEEVIKDMRRVVEQALREGNSELAARILIILFQQLVELARLAIESGDEELLRRVSEWLEEVIKDMRRVVEQALREGNSELAARILIILFQQLVELARLAIESGDEELLRRVSEWLEEVIKDMRRVVEQALREGNSELAARILIILFQQLVELARLAIESGDEELLRRVSEWLEEVIKDMRRVVEQALREGNWYYGKVTRHQAEMALNERGHEGDFLIRDSESSPNDFSVSLKAQGKNKHFKVQLKETVYCIGQRKFSTMEELVEHYKKAPIFTSEQGEKLYLVKHLSELAARILIILFQQLVELARLAIESGDEELLRRVSEWLEEVIKDMRRVVEQALREGNSELACRILIILFQQLVELARLAIESGDEELLRRVSEWLEEVIKDMRRVVEQALREGN | 123

Source: PMC8556268
